Consider 104 substances from the supplement of paper PMC12042874.

± gives the uncertainty stated by the source.

A short description of the data set: amyloid nucleation score (Sup35N fusion, yeast selection) (log enrichment); library NNK1; higher = more nucleation; inactive = no reads after selection. A digest of the protocol: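 Random libraries were run with three technical output replicates. In each, psi-negative yeast expressing Sup35N fused to peptides of 20 random codons were induced 24 hours with 100 μM copper sulfate and grown 7 days at 30°C on medium lacking adenine and uracil, and input and output plasmid inserts were Illumina-sequenced. The nucleation score is the DiMSum log enrichment of output over input reads, centred on the mode score of non-aggregating sequences, and sequences under 100 input reads were excluded.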
SSMSPTVYVVRR: the amyloid nucleation score was determined as 0.163 ± 0.9.
Next, SSMVVVGRRNLSDWKEYYPM: -0.283 ± 0.45.
As for SSPKTRMVEGVCCYFVGSIY, the figure is 0.704 ± 1.2.
SSRLLCYRSVGAFISVGNEV had an amyloid nucleation score of 0.675 ± 0.19.
Next, SSRNDLDVQYLTVDQRPSMP: 1.66 ± 0.56; SSRYLSDSIKLAGWSIT: -1.39 ± 2.4.
As for SSSFRCAFSSVA, the figure is 0.994 ± 0.69; as for SSSLSKLVFWKYFCIDEGLS, 0.491 ± 0.53; as for SSTRT, 0.667 ± 0.97.
As for SSTSSRCHTSANLVRLVNGR, the figure is 0.714 ± 0.33.
Consider SSVFKRMWPLLFVIPRQMH, for which the amyloid nucleation score was determined as 0.02 ± 0.43.
As for SSVGKLGDPWL, the amyloid nucleation score is -1.15 ± 0.53.
Next, SSVKTVDLNCI: -0.125 ± 0.37; SSYGKFDGKCLQHM: -0.157 ± 0.76.
Take STFAPNTSFGTIEIRFWICV: the amyloid nucleation score was -0.702 ± 1.1.
Next, STFCTSAISMSIGSIIVGLS: 0.043 ± 0.62; STIGNVY: -0.586 ± 0.51; STLSMTHVASAAVWRLVMPR: 1.41 ± 0.48.
As for STLWKASVFKFCYICLYQQW, the figure is 0.35 ± 0.95.
As for STMVCHDFLAMMGSCMGLCL, the figure is -0.406 ± 0.96.
For the substance STNLLDFVGKSYVNWKKFRT, the amyloid nucleation score worked out at 0.104 ± 0.42.
Next, STSIDVWRSALLRVFGFTIY: 0.171 ± 0.37; STTSMPDWLNVWVSRSSSVV: 1.06 ± 0.28.
Next, STTVSIYWCRWGGSSLHDV: 0.141 ± 1.4; STWIHQMRSMASAENFSCYS: -1.27 ± 0.63.
SVENNTAPICNTKSSVSDSL: the amyloid nucleation score came to 0.852 ± 0.93.
As for SVFNGYQSLVICFLRVSACC, the figure is 0.154 ± 1; as for SVFRSSVCLLANDGVFSMNV, 0.355 ± 0.39; as for SVFSTEVCSTHAMILWKY, 0.117 ± 1.4.
As for SVFWAWCVADHTIIDQKSSL, the figure is 0.391 ± 0.48.
Regarding SVFYYILNPSEAVHEVSVTS, the amyloid nucleation score was -0.564 ± 0.48.
Next, SVGDIFSMWSVCSSVNDRCK: 0.415 ± 0.21; SVGQRSRAEPDVKLCSGNLG: “inactive”; SVHKSMKSDINMACHAKR: 1.04 ± 0.6.
As for SVIFWMGRRMLLLACVPESA, the figure is -0.128 ± 0.81.
Take SVKGLYLIDVLLSYGLTFGM: the amyloid nucleation score was -0.608 ± 0.53.
Next, SVKTLLVRGILSLSIGFYMS: 0.294 ± 0.52; SVLSMLIWYKPHREGSLN: 0.812 ± 1.1; SVLWCPRCRYCKFAGVRTWK: -0.398 ± 0.97.
Next, SVMLLQLYMCLINFPNIPRT: 1.6 ± 0.44; SVRVI: 0.105 ± 0.73.
Next, SVRVMVLFWIKHCRLLWGRH: -0.405 ± 1.7.
Substance SVSLTNGVAEADKRYASAWL showed an amyloid nucleation score of -0.093 ± 0.31.
Regarding SVTEVFYGKSVFLTFVFGIF, the amyloid nucleation score turned out to be 0.292 ± 0.31.
Next, SVTRHALSNRSNGKIADCC: -0.306 ± 0.56.
As for SVVRTMSLLATFLRV, the figure is -0.795 ± 1.6.
As for SVWIKSST, the figure is -0.285 ± 1.4.
Take SVYRSVRGNRCWGLKIIMPG: the amyloid nucleation score is -0.101 ± 1.1.
SVYSVAFR had an amyloid nucleation score of 0.184 ± 0.78.
On to SVYTNVLDTTNQGTKQNGPR, for which the amyloid nucleation score turned out to be 1.01 ± 0.47.
As for SWDPNVSFALL, the figure is 2.93 ± 0.25; as for SWFKSWSPKALSARIGRVYL, -0.176 ± 0.55.
Next, SWFSRMGTCYDFNSKWSCLL: 0.654 ± 0.66.
For SWIANRRRFAL, the amyloid nucleation score turned out to be 3.64 ± 0.15.
Next, SWLDLNLIDHQAFAFSSFGL: -0.043 ± 0.45.
As for SWMKSLLFVFGLTCQMRECV, the figure is -0.544 ± 0.61; as for SWQAVCAMSCCLW, 8.628 ± 0.051; as for SWQPECCTVQTLSSKSEISH, -0.158 ± 1.6.
As for SWRFDCYDRTWYNMYLEHLS, the figure is 0.232 ± 0.23; as for SWRLRIIGEWRAFGDNMDSR, 2.75 ± 0.15; as for SWWEFECETS, “inactive”.
As to SWYLMIKVIETVSGVTGWVG, the amyloid nucleation score worked out at 2.39 ± 0.12.
Next, SWYVVG: -0.373 ± 0.97; SYDSRNASLVIIISWVMQPL: 0.992 ± 0.16.
As for SYFRFVLYN, the amyloid nucleation score amounted to 0.052 ± 1.1.
SYGLCMMAFLSLDAS registered an amyloid nucleation score of 0.517 ± 0.28.
Substance SYGWCCTNYNSFVWTYPLTK came in with an amyloid nucleation score of 5.79 ± 0.06.
As for SYGYSMLAGVWT, the figure is 0.057 ± 1.1.
Substance SYLGTHRFTECILDRVCTLQ registered an amyloid nucleation score of 0.125 ± 1.4.
As for SYLKS, the figure is -0.4 ± 0.63; as for SYNDQSVAYCVLIAETVWYC, 7.742 ± 0.055; as for SYPSGVLDSNNPVLARGLAQ, -0.227 ± 0.41.
As to SYPTALLKSVLFPLVVI, the amyloid nucleation score was -0.463 ± 0.26.
Next, SYSEFSVEGFKGHVGAYGG: -0.136 ± 0.29; SYSEYPHVEYLLLFSMTQWN: 0.43 ± 0.34; SYSFAWGS: 1.82 ± 0.45.
For the substance SYSSVVSVYFLQIYFF, the amyloid nucleation score amounted to 4.05 ± 0.054.
Next, SYTVFCRVWYDSHRFM: -0.066 ± 0.45; SYVFDKGFIVNVITRCRKKM: 1.44 ± 0.34.
As for SYVIGNTGGSIKSEARGWDI, the figure is 0.071 ± 0.35; as for SYWCLRAYLRLWLL, -0.164 ± 0.42.
Next, TADFLERRDMKYLHM: -0.361 ± 1.7; TAIRLVQS: -0.283 ± 0.44.
Take TAMRSHLSVPSNVTLPCIKH: the amyloid nucleation score was 0.082 ± 0.46.
TARFINVDVLSPW came in with an amyloid nucleation score of 1.32 ± 0.28.
As for TARFLTKFAPGQSMNAYRCG, the figure is -0.033 ± 0.6; as for TARYTGGNTNIRSGKFLVWI, 0.075 ± 0.35.
As for TAVTCLL, the amyloid nucleation score was -0.175 ± 1.2.
TCDRVNAIVEFWRCR returned an amyloid nucleation score of 1.46 ± 0.12.
As for TCFGL, the amyloid nucleation score was -0.702 ± 1.2.
As for TCGSYV, the figure is 0.215 ± 0.42; as for TCRFIGEYLRIRYT, 0.367 ± 0.58.
Consider TCTYVYFLCSSIYARNITFM, for which the amyloid nucleation score was determined as 8.838 ± 0.057.
The substance TCVDAVVLM showed an amyloid nucleation score of 0.063 ± 0.62.
Substance TDFMFFWGDFMVTYTAVVCR showed an amyloid nucleation score of -0.096 ± 0.44.
The substance TDLAHLSVSMFDNFSRELVL showed an amyloid nucleation score of -0.323 ± 1.6.
As for TDLLWKTSLLPNVY, the figure is 1.71 ± 0.36; as for TDNDLVHYCTM, 0.029 ± 0.59; as for TDSSKGRGARRGGSNSSHSW, -0.419 ± 0.61.
Turning to TDWFSSMLEN, the amyloid nucleation score was found to be 0.291 ± 0.3.
In turn, TEAFRSRAFFGWWRSMCRRW came in with an amyloid nucleation score of 0.112 ± 0.87.
As for TEFERFFKRDGYWGSRSYSR, the figure is 0.221 ± 0.59.
As for TENCDLCKQLAAVLC, the figure is -0.812 ± 0.93.
The substance TEQYCS gave an amyloid nucleation score of 0.404 ± 1.
